Measured values as given in publication PMC6318328, “Structural insights into trans-histone regulation of H3K4 methylation by unique histone H4 binding of MLL3/4” (Nature Communications, 2019).

T1: MLL3_(PHD5-6)_(1008–1144) (human, UniProt Q8NEZ4 1008-1144)
T1 construct: MLL3 (KMT2C), human, residues 1008–1144; also called PHD5–6 of MLL3; source: E. coli BL21 (DE3) Codon plus RIL, purified (Ni-NTA, thrombin, HiTrap Q, Superdex75); not shown: GST, N-terminal, cleaved; His tag, N-terminal, cleaved
T1 sequence (looked up): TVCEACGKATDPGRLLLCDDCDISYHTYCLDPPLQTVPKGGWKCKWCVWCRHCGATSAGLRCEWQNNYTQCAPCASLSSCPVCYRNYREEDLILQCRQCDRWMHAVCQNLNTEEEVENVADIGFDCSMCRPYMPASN

T2: MLL3_(ePHD6)_(1075–1144) (human, UniProt Q8NEZ4 1075-1144)
T2 construct: MLL3 (KMT2C), human, residues 1075–1144; also called MLL3_ePHD6, residues 1075–1144; source: E. coli BL21 (DE3) Codon plus RIL, purified (Ni-NTA, thrombin, HiTrap Q, Superdex75); not shown: GST, N-terminal, cleaved; His tag, N-terminal, cleaved
T2 sequence (looked up): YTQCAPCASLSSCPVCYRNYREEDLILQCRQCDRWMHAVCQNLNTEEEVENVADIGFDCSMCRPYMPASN

T3: MLL3_(ePHD6)_(1055–1144) (human, UniProt Q8NEZ4 1055-1144)
T3 construct: MLL3 (KMT2C), human, residues 1055–1144: the zinc finger before PHD6 and the sixth PHD domain; Monomer in solution by gel filtration; the dimer in the crystal is put down to crystal packing; also called extended PHD6 domain of MLL3; source: E. coli BL21 (DE3) Codon plus RIL, purified (Ni-NTA, thrombin, HiTrap Q, Superdex75); not shown: GST, N-terminal, cleaved; His tag, N-terminal, cleaved
T3 sequence (looked up): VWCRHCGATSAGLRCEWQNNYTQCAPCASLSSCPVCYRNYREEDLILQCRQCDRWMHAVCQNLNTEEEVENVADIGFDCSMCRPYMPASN

B1: MLL4_(ePHD6)_(1475–1564) (domain or fragment, human, UniProt O14686 1475-1564, looked up)
chain: VSCMQCGAASPGFHCEWQNSYTHCGPCASLVTCPICHAPYVEEDLLIQCRHCERWMHAGCESLFTEDDVEQAADEGFDCVSCQPYVVKPV
notes: MLL4 (KMT2D, ALR), human, residues 1475–1564: the zinc finger before PHD6 and the sixth PHD domain; also called extended PHD6 domain of MLL4; source: E. coli BL21 (DE3) Codon plus RIL, purified (Ni-NTA, thrombin, HiTrap Q, Superdex75); not shown: GST, N-terminal, cleaved; His tag, N-terminal, cleaved
B2: MLL4_(PHD6)_(1505–1564) (domain or fragment, human, UniProt O14686 1505-1564, looked up)
chain: VTCPICHAPYVEEDLLIQCRHCERWMHAGCESLFTEDDVEQAADEGFDCVSCQPYVVKPV
notes: MLL4 (KMT2D), human, residues 1505–1564 (sixth PHD domain alone); also called PHD6 domain of MLL4; source: E. coli BL21 (DE3) Codon plus RIL, purified (Ni-NTA, thrombin, HiTrap Q, Superdex75); not shown: GST, N-terminal, cleaved; His tag, N-terminal, cleaved
B3: histone H4 peptide H4_(11–21) (peptide, UniProt P62805 12-22, looked up)
peptide: GKGGAKRHRKV
notes: histone H4, residues 11–21; also called H4H18 peptide; source: synthetic peptide (Peptide 2.0 Inc.)

Assays:
[1] = target: the molecule itself; assay: SEC; gel-filtration profiles of the purified domains (Supplementary Fig. 3)
[2] = target: T1, MLL3_(PHD5-6)_(1008–1144); assay: ITC; peptide (1–2 mM) in the syringe injected into protein (50–100 μM) in the cell; 25 °C; 20 mM Tris pH 7.5, 150 mM NaCl; single-site binding model; settings: both partners purified
MLL3_(ePHD6)_(1075–1144) = target: T2, MLL3_(ePHD6)_(1075–1144); assay: as above; settings: both partners purified
MLL4_(ePHD6)_(1495–1564) = target: T4, MLL4_(ePHD6)_(1495–1564) (human, UniProt O14686 1495-1564); assay: as above; settings: both partners purified
T4 construct: MLL4 (KMT2D), human, residues 1495–1564; also called MLL4_ePHD6, residues 1495–1564; source: E. coli BL21 (DE3) Codon plus RIL, purified (Ni-NTA, thrombin, HiTrap Q, Superdex75); not shown: GST, N-terminal, cleaved; His tag, N-terminal, cleaved

MLL3_(ePHD6)_(1055–1144) = target: T3, MLL3_(ePHD6)_(1055–1144); assay: as above; settings: both partners purified
MLL4_(ePHD6)_(1475–1564) = target: B1; assay: as above; settings: both partners purified

| Kd [2] | Kd (MLL3_(ePHD6)_(1075–1144)) | Kd (MLL4_(ePHD6)_(1495–1564)) | Kd (MLL3_(ePHD6)_(1055–1144)) | Kd (MLL4_(ePHD6)_(1475–1564)) | Binder | stoichiometry N [1] |
| --- | --- | --- | --- | --- | --- | --- |
| – | – | – | – | – | B1 | 2 |
| – | – | – | – | – | B2 | 2 |
| 83 µM | 31 µM | 48 µM | 35 µM | 52 µM | B3 | – |
